Results taken from patent US20090311283A1.

B1: HBV POL 519 peptide … (peptide)
peptide: TSAICSVVR
modifications: not checked
B2: HBV X 65 peptide SAGPCALR (peptide)
peptide: SAGPCALR
modifications: not checked
B3: HBV X 11 peptide … (peptide)
peptide: PARDVLCLR
modifications: not checked
B4: HBV POL 641 peptide … (peptide)
peptide: PALMPLYACI
modifications: not checked
B5: HBV NUC 138 peptide … (peptide)
peptide: PILSTLPET
modifications: not checked
B6: HBV NUC 138 peptide … (peptide)
peptide: PILSTLPETTV
modifications: not checked
B7: HBV ENV 10 peptide … (peptide)
peptide: PLGFFPDHQL
modifications: not checked
B8: HBV POL 20 peptide … (peptide)
peptide: PLEEELPRLA
modifications: not checked
B9: HBV POL 496 peptide … (peptide)
peptide: PIILGFRKI
modifications: not checked
B10: HBV POL 20 peptide … (peptide)
peptide: PLEEELPRL
modifications: not checked
B11: HBV NUC 138 peptide … (peptide)
peptide: PILSTLPETT
modifications: not checked
B12: HBV POL 123 peptide … (peptide)
peptide: LPLDKGIKPYY
modifications: not checked
B13: HBV NUC 177 peptide … (peptide)
peptide: VVRRRGRSPR
modifications: not checked
B14: … (HBV NUC 177) (peptide)
peptide: VVRRRGRSPR
modifications: not checked
B15: HBV NUC 28 peptide … (peptide)
peptide: WGMDIDPYK
modifications: not checked
B16: HBV POL 752 peptide … (peptide)
peptide: LLGCAANWI
modifications: not checked
B17: HBV ENV 184 peptide LLTRILTI (peptide)
peptide: LLTRILTI
modifications: not checked
B18: HBV POL 768 peptide … (peptide)
peptide: YVPSALNPA
modifications: not checked
B19: HBV ENV 260 peptide LLDYQGML (peptide)
peptide: LLDYQGML
modifications: not checked
B20: HBV POL 751 10-mer peptide … (peptide)
peptide: WLLGCAANWI
modifications: not checked
B21: HBV ENV 254 peptide LIFLLVLL (peptide)
peptide: LIFLLVLL
modifications: not checked
B22: HBV ENV 237 11-mer peptide … (peptide)
peptide: WMCLRRFIIFL
modifications: not checked
B23: HBV POL 414 9-mer peptide … (peptide)
peptide: WLSLDVSAA
modifications: not checked
B24: HBV ENV 249 peptide … (peptide)
peptide: ILLLCLIFL
modifications: not checked
B25: HBV NUC 141 peptide … (peptide)
peptide: STLPETTVV
modifications: not checked
B26: HBV ENV 348 peptide GLSPTVWL (peptide)
peptide: GLSPTVWL
modifications: not checked
B27: HBV POL 518 … (peptide)
peptide: FTSAICSVV
modifications: not checked
B28: HBV ENV 246 … (peptide)
peptide: FLFILLLCL
modifications: not checked
B29: HBV NUC 123 peptide … (peptide)
peptide: GVWIRTPPA
modifications: not checked
B30: HBV POL 59 … (peptide)
peptide: FTGLYSSTV
modifications: not checked
B31: HBV POL 627 peptide … (peptide)
peptide: GLLGFAAPFT
modifications: not checked
B32: HBV X 132 … (peptide)
peptide: FVLGGCRHKL
modifications: not checked
B33: HBV NUC 119 peptide LVSFGVWI (peptide)
peptide: LVSFGVWI
modifications: not checked
B34: HBV ENV 243 FIIFLFIL (peptide)
peptide: FIIFLFIL
modifications: not checked
B35: HBV POL 625 peptide … (peptide)
peptide: IVGLLGFAA
modifications: not checked
B36: HBV POL 42 peptide … (peptide)
peptide: NLGNLNVSI
modifications: not checked
B37: HBV POL 45 peptide … (peptide)
peptide: NLNVSIPWT
modifications: not checked
B38: HBV POL 581 9-mer … (peptide)
peptide: SLNFMGYVI
modifications: not checked
B39: HBV POL 406 peptide … (peptide)
peptide: NLLSSNLSWL
modifications: not checked
B40: HBV POL 363 … (peptide)
peptide: FLVDKNPHNT
modifications: not checked
B41: HBV ENV 348 peptide … (peptide)
peptide: GLSPTVWLSVI
modifications: not checked
B42: HBV X 133 peptide … (peptide)
peptide: VLGGCRHKL
modifications: not checked
B43: HBV ENV 330 peptide … (peptide)
peptide: SVRFSWLSLL
modifications: not checked
B44: HBV POL 357 9-mer … (peptide)
peptide: RVTGGVFLV
modifications: not checked
B45: HBV X 92 peptide … (peptide)
peptide: VLHKRTLGL
modifications: not checked
B46: HBV X 15 peptide … (peptide)
peptide: VLCLRPVGA
modifications: not checked
B47: HBV NUC 26 peptide … (peptide)
peptide: WLWGMDIDPYK
modifications: not checked
B48: HBV POL 314 peptide WLQFRNSK (peptide)
peptide: WLQFRNSK
modifications: not checked
B49: HBV NUC 125 peptide WIRTPPAY (peptide)
peptide: WIRTPPAY
modifications: not checked
B50: HBV POL 122 peptide … (peptide)
peptide: YLPLDKGIKPY
modifications: not checked
B51: HBV POL 580 peptide YSLNFMGY (peptide)
peptide: YSLNFMGY
modifications: not checked
B52: HBV POL 122 peptide … (peptide)
peptide: YLPLDKGIK
modifications: not checked
B53: HBV NUC 118 peptide … (peptide)
peptide: YLVSFGVWIR
modifications: not checked

What follows are binders tested against HLA-A*6801 (human) (assay: competition with 125I probe peptide on purified HLA-A*6801; relative to standard peptide 941.12). Conditions: remark: other sources report otherwise.
B1 gave a binding affinity ratio (IC50 standard peptide / IC50 test peptide) of 0.082.
B2 gave a binding affinity ratio (IC50 standard peptide / IC50 test peptide) of 0.036.

The binders below were run against HLA-A*3101 (human) (assay: competition with 125I probe peptide on purified HLA-A*3101; relative to standard peptide 941.12). Conditions: remark: other sources report otherwise.
B1 gave a binding affinity ratio (IC50 standard peptide / IC50 test peptide) of 0.06.
Binder B2 has a binding affinity ratio (IC50 standard peptide / IC50 test peptide) of 0.0029.

These binders were tested against HLA-A*3301 (human) (assay: not given). Conditions: not given.
B3 gave a binding affinity ratio (IC50 of standard peptide / IC50 of test peptide) of 0.018.

Same assay, conditions: remark: other sources report otherwise
With B1 the binding affinity ratio (IC50 standard peptide / IC50 test peptide) was 0.02.

These binders were tested against HLA-A*1101 (human) (assay: not given). Conditions: remark: other sources report otherwise.
B2 gave a binding affinity ratio (IC50 standard peptide / IC50 test peptide) of 0.002.

These binders were tested against HLA-A*3101 (human) (assay: competition with 125I-labelled probe peptide for purified HLA-A*3101, gel filtration; ratio to standard peptide 941.12). Conditions: not given.
Work on B3 yielded a binding affinity ratio (IC50 of standard peptide / IC50 of test peptide) of 0.01.

What follows are binders tested against HLA-A*0201 (human) (assay: competition with 125I-labelled probe peptide for purified HLA, gel filtration). Conditions: not given.
For B4, the binding affinity ratio (IC50 of standard peptide / IC50 of test peptide) was 0.0001.
Binder B5 has a binding affinity ratio (IC50 of standard peptide / IC50 of test peptide) of 0.0001.
Binder B6 has a binding affinity ratio (IC50 of standard peptide / IC50 of test peptide) of 0.0001.
Work on B7 yielded a binding affinity ratio (IC50 of standard peptide / IC50 of test peptide) of 0.0002.
B8 showed a binding affinity ratio (IC50 of standard peptide / IC50 of test peptide) of 0.0001.
B9 was tested, and the binding affinity ratio (IC50 of standard peptide / IC50 of test peptide) was 0.0001.
For B10, the binding affinity ratio (IC50 of standard peptide / IC50 of test peptide) was 0.0003.
B11 gave a binding affinity ratio (IC50 of standard peptide / IC50 of test peptide) of 0.0001.

These binders were tested against HLA-B*3501 (Human) in the same assay as above. Conditions: not given.
With B12 the binding affinity ratio (IC50 of standard peptide / IC50 of test peptide) was 0.0009.

These binders were tested against HLA-B*5401 (Human) in the same assay as above. Conditions: not given.
B12 gave a binding affinity ratio (IC50 of standard peptide / IC50 of test peptide) of 0.0001.

Each binder was assayed against HLA-B*5101 (Human) in the same assay as above. Conditions: not given.
In the case of B12, the binding affinity ratio (IC50 of standard peptide / IC50 of test peptide) is reported as 0.0001.

The binders below were run against HLA-A*0301 (human) in the same assay as above. Conditions: not given.
In the case of B13, the binding affinity ratio (IC50 of standard peptide / IC50 of test peptide) (ratio to standard peptide) is reported as 0.0027.
For B14, the binding affinity ratio (IC50 of standard peptide / IC50 of test peptide) was 0.0027.
For B15, the binding affinity ratio (IC50 of standard peptide / IC50 of test peptide) (ratio to standard peptide) was -0.0003.

Each binder was assayed against HLA-A*0201 (human) (assay: not given). Conditions: not given.
For B16, the binding affinity ratio (IC50 of standard peptide / IC50 of test peptide) was 0.0011.
In the case of B17, the binding affinity ratio (IC50 of standard peptide / IC50 of test peptide) is reported as 0.0026.
B18 showed a binding affinity ratio (IC50 of standard peptide / IC50 of test peptide) of 0.0039.
Binder B19 has a binding affinity ratio (IC50 of standard peptide / IC50 of test peptide) of 0.0004.
For B20, the binding affinity ratio (IC50 of standard peptide / IC50 of test peptide) was 0.0053.
B21 was tested, and the binding affinity ratio (IC50 of standard peptide / IC50 of test peptide) was 0.0025.
With B22 the binding affinity ratio (IC50 of standard peptide / IC50 of test peptide) was 0.0019.
Work on B23 yielded a binding affinity ratio (IC50 of standard peptide / IC50 of test peptide) of 0.0059.

These binders were tested against HLA-A*0201 (Human) (assay: not given). Conditions: not given.
B24 was tested, and the binding affinity ratio (IC50 of standard peptide / IC50 of test peptide) was 0.0015.
For B25, the binding affinity ratio (IC50 of standard peptide / IC50 of test peptide) was 0.0019.
In the case of B26, the binding affinity ratio (IC50 of standard peptide / IC50 of test peptide) is reported as 0.0036.
Binder B27 has a binding affinity ratio (IC50 of standard peptide / IC50 of test peptide) of 0.009.
With B28 the binding affinity ratio (IC50 of standard peptide / IC50 of test peptide) was 0.0002.
Work on B29 yielded a binding affinity ratio (IC50 of standard peptide / IC50 of test peptide) of 0.003.
Work on B30 yielded a binding affinity ratio (IC50 of standard peptide / IC50 of test peptide) of 0.0005.
With B31 the binding affinity ratio (IC50 of standard peptide / IC50 of test peptide) was 0.0049.
In the case of B32, the binding affinity ratio (IC50 of standard peptide / IC50 of test peptide) is reported as 0.003.
With B33 the binding affinity ratio (IC50 of standard peptide / IC50 of test peptide) (ratio to standard peptide) was 0.0004.
For B34, the binding affinity ratio (IC50 of standard peptide / IC50 of test peptide) was 0.0006.
B35 showed a binding affinity ratio (IC50 of standard peptide / IC50 of test peptide) of 0.0009.
For B36, the binding affinity ratio (IC50 of standard peptide / IC50 of test peptide) (ratio to standard peptide) was 0.0047.
B37 gave a binding affinity ratio (IC50 of standard peptide / IC50 of test peptide) (ratio to standard peptide) of 0.0005.
With B38 the binding affinity ratio (IC50 of standard peptide / IC50 of test peptide) was 0.0038.
B39 was tested, and the binding affinity ratio (IC50 of standard peptide / IC50 of test peptide) (ratio to standard peptide) was 0.0016.
Work on B40 yielded a binding affinity ratio (IC50 of standard peptide / IC50 of test peptide) of 0.0012.
B41 showed a binding affinity ratio (IC50 of standard peptide / IC50 of test peptide) of 0.0036.
With B42 the binding affinity ratio (IC50 of standard peptide / IC50 of test peptide) was 0.0009.
In the case of B43, the binding affinity ratio (IC50 of standard peptide / IC50 of test peptide) is reported as 0.0004.

Same assay, conditions: remark: other sources report otherwise
With B44 the binding affinity ratio (IC50 of standard peptide / IC50 of test peptide) was 0.0041.
In the case of B45, the binding affinity ratio (IC50 of standard peptide / IC50 of test peptide) is reported as 0.0012.
For B46, the binding affinity ratio (IC50 of standard peptide / IC50 of test peptide) was 0.0014.

Each binder was assayed against HLA-A*0301 (human) (assay: competitive inhibition of 125I-labelled probe peptide binding to purified HLA, gel filtration). Conditions: remark: other sources report otherwise; scale: ratio.
B47 gave a binding affinity ratio (relative binding to standard peptide) of 0.003.

Same assay, conditions: scale: ratio
B48 showed a binding affinity ratio (relative binding to standard peptide) of -0.0002.
B49 gave a binding affinity ratio (relative binding to standard peptide) of -0.0002.
Work on B50 yielded a binding affinity ratio (relative binding to standard peptide) of -0.0004.
B51 was tested, and the binding affinity ratio (relative binding to standard peptide) was -0.0002.
B52 showed a binding affinity ratio (relative binding to standard peptide) of 0.0001.
Work on B53 yielded a binding affinity ratio (relative binding to standard peptide) of 0.0005.

These binders were tested against HLA-A*0301 (human) (assay: competition with 125I probe peptide on purified HLA-A*0301; relative to standard peptide 941.12). Conditions: remark: other sources report otherwise.
In the case of B1, the binding affinity ratio (IC50 standard peptide / IC50 test peptide) is reported as 0.0005.
With B2 the binding affinity ratio (IC50 standard peptide / IC50 test peptide) was -0.0002.
